B1: FAST kinase domain-containing protein 5, mitochondrial (Homo sapiens), Q7L8L6 (parent)
chain: MAATLKSLKLVRYRAFCSPSAFGAVRSVSYWNVSSTQHGGQDPPEHISLCHSAKKVKNICSTFSSRRILTTSSAHPGLEFSKTSSSKASTLQLGSPRATGVDEEDVEVFDSFENMRVFLQLRPEYRVHSYNASETSQLLSVSEGELILHKVRVNQNNLQAQVIVDYLCKLSSLPAEQHPVLLGSTSFALLCQLSVKKIQLFDTQDLINVLKAFVILGIPHSHSMLDVYETKCCHQVWEMNMDQLLLVADLWRYLGRKVPRFLNIFSSYLNLHWKDLSLSQLVHLIYVIGENRQVSQDLMQKLESLILKYIDLINLEEVGTICLGFFKSSTNLSEFVMRKIGDLACANIQHLSSRSLVNIVKMFRFTHVDHINFMKQIGEIAPQRIPSLGVQGVMHLTLYCSALRFLNEGVMNAVAASLPPRVAHCRSKDVAKILWSFGTLNYKPPNAEEFYSSLISEIHRKMPEFNQYPEHLPTCLLGLAFLEYFPVELIDFALSPGFVRLAQERTKFDLLKELYTLDGTVGIECPDYRGNRLSTHLQQEGSELLWYLAEKDMNSKPEFLETVFLLETMLGGPQYVKHHMILPHTRSSDLEVQLDVNLKPLPFNREATPAENVAKLRLEHVGVSLTDDLMNKLLKGKARGHFQGKTESEPGQQPMELENKAAVPLGGFLCNVADKSGAMEMAGLCPAACMQTPRMKLAVQFTNRNQYCYGSRDLLGLHNMKRRQLARLGYRVVELSYWEWLPLLKRTRLEKLAFLHEKVFTSAL
partner: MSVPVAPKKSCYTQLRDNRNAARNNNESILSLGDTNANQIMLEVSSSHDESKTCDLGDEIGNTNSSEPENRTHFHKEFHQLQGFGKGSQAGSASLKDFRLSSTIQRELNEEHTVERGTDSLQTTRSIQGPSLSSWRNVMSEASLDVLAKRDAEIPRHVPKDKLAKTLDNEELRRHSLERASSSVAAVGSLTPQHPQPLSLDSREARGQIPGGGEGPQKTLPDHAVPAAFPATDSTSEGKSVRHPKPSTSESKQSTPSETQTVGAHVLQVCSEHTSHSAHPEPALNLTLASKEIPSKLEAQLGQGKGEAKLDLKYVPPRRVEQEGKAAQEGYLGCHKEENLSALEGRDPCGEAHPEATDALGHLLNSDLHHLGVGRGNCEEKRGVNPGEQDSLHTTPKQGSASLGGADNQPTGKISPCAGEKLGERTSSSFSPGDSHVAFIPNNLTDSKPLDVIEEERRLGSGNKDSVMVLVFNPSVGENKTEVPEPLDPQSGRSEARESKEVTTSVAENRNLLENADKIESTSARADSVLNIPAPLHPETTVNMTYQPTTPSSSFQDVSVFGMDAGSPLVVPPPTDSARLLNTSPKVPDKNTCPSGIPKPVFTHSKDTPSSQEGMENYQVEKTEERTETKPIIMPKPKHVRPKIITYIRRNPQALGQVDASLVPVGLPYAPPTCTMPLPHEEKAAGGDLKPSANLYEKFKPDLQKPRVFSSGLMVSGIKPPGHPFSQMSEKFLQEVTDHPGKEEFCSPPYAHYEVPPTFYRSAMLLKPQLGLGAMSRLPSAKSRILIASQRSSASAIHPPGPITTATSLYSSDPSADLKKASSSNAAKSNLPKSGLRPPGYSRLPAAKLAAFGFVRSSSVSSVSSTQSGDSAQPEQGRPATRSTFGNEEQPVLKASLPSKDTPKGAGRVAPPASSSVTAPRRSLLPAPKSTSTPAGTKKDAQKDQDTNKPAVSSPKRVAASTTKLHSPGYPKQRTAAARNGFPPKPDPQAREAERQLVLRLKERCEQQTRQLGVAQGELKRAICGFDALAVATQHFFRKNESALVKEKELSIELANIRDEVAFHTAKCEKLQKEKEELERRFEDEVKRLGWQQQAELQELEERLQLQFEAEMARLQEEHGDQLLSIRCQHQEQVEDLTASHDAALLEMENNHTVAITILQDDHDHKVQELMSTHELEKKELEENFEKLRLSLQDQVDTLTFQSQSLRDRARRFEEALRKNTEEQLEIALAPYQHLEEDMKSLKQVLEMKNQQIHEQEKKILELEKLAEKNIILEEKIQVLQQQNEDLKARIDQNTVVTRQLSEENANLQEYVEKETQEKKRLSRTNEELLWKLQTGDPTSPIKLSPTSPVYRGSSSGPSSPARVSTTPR
B2: Coiled-coil domain-containing protein 120 (Homo sapiens), Q96HB5-4 (parent)
chain: MRREPRYQGQVGPDIHTDSERTLSSHQPRPLDSTKMEVKGQLISSPTFNAPAALFGEAAPQVKSERLRGLLDRQRTLQEALSLKLQELRKVCLQEAELTGQLPPECPLEPGERPQLVRRRPPTARAYPPPHPNQAHHSLCPAEELALEALEREVSVQQQIAAAARRLALAPDLSTEQRRRRRQVQADALRRLHELEEQLRDVRARLGLPVLPLPQPLPLSTGSVITTQGVCLGMRLAQLSQEDVVLHSESSSLSESGASHDNEEPHGCFSLAERPSPPKAWDQLRAVSGGSPERRTPWKPPPSDLYGDLKSRRNSVASPTSPTRSLPRSASSFEGRSVPATPVLTRGAGPQLCKPEGLHSRQWSGSQDSQMGFPRADPASDRASLFVARTRRSNSSEALLVDRAAGGGAGSPPAPLAPSASGPPVCKSSEVLYERPQPTPAFSSRTAGPPDPPRAARPSSAAPASRGAPRLPPVCGDFLLDYSLDRGLPRSGGGTGWGELPPAAEVPGPLSRRDGLLTMLPGPPPVYAADSNSPLLRTKDPHTRATRTKPCGLPPEAAEGPEVHPNPLLWMPPPTRIPSAGERSGHKNLALEGLRDWYIRNSGLAAGPQRRPVLPSVGPPHPPFLHARCYEVGQALYGAPSQAPLPHSRSFTAPPVSGRYYADFLYPPELSARLSDLTLEGEQSSSSDTQTPGTLV
partner: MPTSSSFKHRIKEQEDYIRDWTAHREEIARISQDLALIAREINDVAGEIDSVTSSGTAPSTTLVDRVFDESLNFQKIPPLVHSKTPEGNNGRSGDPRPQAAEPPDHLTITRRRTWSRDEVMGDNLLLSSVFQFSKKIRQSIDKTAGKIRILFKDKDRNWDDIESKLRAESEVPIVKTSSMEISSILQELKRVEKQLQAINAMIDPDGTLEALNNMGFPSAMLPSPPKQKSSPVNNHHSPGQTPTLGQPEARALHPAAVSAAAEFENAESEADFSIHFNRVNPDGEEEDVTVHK
B3: Liprin-alpha-1 (Homo sapiens), Q13136 (parent)
chain: MMCEVMPTISEAEGPPGGGGGHGSGSPSQPDADSHFEQLMVSMLEERDRLLDTLRETQETLALTQGKLHEVGHERDSLQRQLNTALPQEFAALTKELNVCREQLLEREEEIAELKAERNNTRLLLEHLECLVSRHERSLRMTVVKRQAQSPAGVSSEVEVLKALKSLFEHHKALDEKVRERLRVALERCSLLEEELGATHKELMILKEQNNQKKTLTDGVLDINHEQENTPSTSGKRSSDGSLSHEEDLAKVIELQEIISKQSREQSQMKERLASLSSHVTELEEDLDTARKDLIKSEEMNTKLQRDVREAMAQKEDMEERITTLEKRYLAAQREATSVHDLNDKLENEIANKDSMHRQTEDKNRQLQERLELAEQKLQQTLRKAETLPEVEAELAQRVAALSKAEERHGNIEERLRQMEAQLEEKNQELQRARQREKMNEEHNKRLSDTVDKLLSESNERLQLHLKERMAALEDKNSLLREVESAKKQLEETQHDKDQLVLNIEALRAELDHMRLRGASLHHGRPHLGSVPDFRFPMADGHTDSYSTSAVLRRPQKGRLAALRDEPSKVQTLNEQDWERAQQASVLANVAQAFESDADVSDGEDDRDTLLSSVDLLSPSGQADAHTLAMMLQEQLDAINKEIRLIQEEKENTEQRAEEIESRVGSGSLDNLGRFRSMSSIPPYPASSLASSSPPGSGRSTPRRIPHSPAREVDRLGVMTLLPPSREEVRDDKTTIKCETSPPSSPRALRLDRLHKGALHTVSHEDIRDIRNSTGSQDGPVSNPSSSNSSQDSLHKAPKKKGIKSSIGRLFGKKEKGRPGQTGKEALGQAGVSETDNSSQDALGLSKLGGQAEKNRKLQKKHELLEEARRQGLPFAQWDGPTVVVWLELWVGMPAWYVAACRANVKSGAIMSALSDTEIQREIGISNPLHRLKLRLAIQEIMSLTSPSAPPTSRTTLAYGDMNHEWIGNEWLPSLGLPQYRSYFMECLVDARMLDHLTKKDLRGQLKMVDSFHRNSFQCGIMCLRRLNYDRKELERKREESQSEIKDVLVWSNDRVIRWILSIGLKEYANNLIESGVHGALLALDETFDFSALALLLQIPTQNTQARAVLEREFNNLLVMGTDRRFDEDDDKSFRRAPSWRKKFRPKDIRGLAAGSAETLPANFRVTSSMSSPSMQPKKMQMDGNVSGTQRLDSATVRTYSC
partner: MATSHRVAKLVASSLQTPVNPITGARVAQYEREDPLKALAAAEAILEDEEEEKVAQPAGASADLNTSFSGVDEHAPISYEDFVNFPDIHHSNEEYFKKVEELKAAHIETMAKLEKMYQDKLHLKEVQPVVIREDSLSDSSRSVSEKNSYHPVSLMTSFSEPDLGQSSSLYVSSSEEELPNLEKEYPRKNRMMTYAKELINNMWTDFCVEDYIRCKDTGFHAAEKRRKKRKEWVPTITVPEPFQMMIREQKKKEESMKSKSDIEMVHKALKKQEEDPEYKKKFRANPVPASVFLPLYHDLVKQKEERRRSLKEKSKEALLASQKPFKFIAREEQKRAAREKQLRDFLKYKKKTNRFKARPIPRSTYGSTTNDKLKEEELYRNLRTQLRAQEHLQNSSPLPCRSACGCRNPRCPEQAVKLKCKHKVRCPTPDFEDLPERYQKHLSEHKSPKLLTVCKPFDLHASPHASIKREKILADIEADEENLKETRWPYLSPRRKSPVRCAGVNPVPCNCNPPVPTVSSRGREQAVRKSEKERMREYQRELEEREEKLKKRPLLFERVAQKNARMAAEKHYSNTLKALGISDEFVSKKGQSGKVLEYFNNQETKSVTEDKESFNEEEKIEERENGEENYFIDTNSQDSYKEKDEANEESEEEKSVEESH
B4: CLK4-associating serine/arginine rich protein (Homo sapiens), Q8N2M8 (parent)
chain: MWHEARKHERKLRGMMVDYKKRAERRREYYEKIKKDPAQFLQVHGRACKVHLDSAVALAAESPVNMMPWQGDTNNMIDRFDVRAHLDHIPDYTPPLLTTISPEQESDERKCNYERYRGLVQNDFAGISEEQCLYQIYIDELYGGLQRPSEDEKKKLAEKKASIGYTYEDSTVAEVEKAAEKPEEEESAAEEESNSDEDEVIPDIDVEVDVDELNQEQVADLNKQATTYGMADGDFVRMLRKDKEEAEAIKHAKALEEEKAMYSGRRSRRQRREFREKRLRGRKISPPSYARRDSPTYDPYKRSPSESSSESRSRSRSPTPGREEKITFITSFGGSDEEAAAAAAAAAASGVTTGKPPAPPQPGGPAPGRNASARRRSSSSSSSSSASRTSSSRSSSRSSSRSRRGGGYYRSGRHARSRSRSWSRSRSRSRRYSRSRSRGRRHSGGGSRDGHRYSRSPARRGGYGPRRRSRSRSHSGDRYRRGGRGLRHHSSSRSRSSWSLSPSRSRSLTRSRSHSPSPSQSRSRSRSRSQSPSPSPAREKLTRPAASPAVGEKLKKTEPAAGKETGAAKPKLTPQEKLKLRMQKALNRQFKADKKAAQEKMIQQEHERQEREDELRAMARKIRMKERERREKEREEWERQYSRQSRSPSPRYSREYSSSRRRSRSRSRSPHYRH
partner: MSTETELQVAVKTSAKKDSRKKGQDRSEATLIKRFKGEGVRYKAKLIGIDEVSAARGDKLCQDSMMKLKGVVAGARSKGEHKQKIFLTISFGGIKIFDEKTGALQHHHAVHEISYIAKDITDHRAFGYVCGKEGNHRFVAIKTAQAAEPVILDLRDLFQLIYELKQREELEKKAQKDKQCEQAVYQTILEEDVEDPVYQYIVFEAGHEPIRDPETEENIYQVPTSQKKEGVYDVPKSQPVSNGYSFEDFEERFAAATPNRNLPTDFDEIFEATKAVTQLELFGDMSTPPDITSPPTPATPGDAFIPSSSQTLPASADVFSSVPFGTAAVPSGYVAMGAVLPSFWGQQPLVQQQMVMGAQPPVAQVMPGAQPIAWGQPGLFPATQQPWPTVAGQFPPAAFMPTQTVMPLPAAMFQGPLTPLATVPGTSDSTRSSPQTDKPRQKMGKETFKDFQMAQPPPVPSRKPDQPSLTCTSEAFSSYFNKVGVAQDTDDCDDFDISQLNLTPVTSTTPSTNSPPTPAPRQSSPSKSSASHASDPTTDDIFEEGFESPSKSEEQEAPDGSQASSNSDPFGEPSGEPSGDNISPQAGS
B5: Enhancer of mRNA-decapping protein 3 (Homo sapiens), Q96F86 (parent)
chain: MATDWLGSIVSINCGDSLGVYQGRVSAVDQVSQTISLTRPFHNGVKCLVPEVTFRAGDITELKILEIPGPGDNQHFGDLHQTELGPSGAGCQVGINQNGTGKFVKKPASSSSAPQNIPKRTDVKSQDVAVSPQQQQCSKSYVDRHMESLSQSKSFRRRHNSWSSSSRHPNQATPKKSGLKNGQMKNKDDECFGDDIEEIPDTDFDFEGNLALFDKAAVFEEIDTYERRSGTRSRGIPNERPTRYRHDENILESEPIVYRRIIVPHNVSKEFCTDSGLVVPSISYELHKKLLSVAEKHGLTLERRLEMTGVCASQMALTLLGGPNRLNPKNVHQRPTVALLCGPHVKGAQGISCGRHLANHDVQVILFLPNFVKMLESITNELSLFSKTQGQQVSSLKDLPTSPVDLVINCLDCPENVFLRDQPWYKAAVAWANQNRAPVLSIDPPVHEVEQGIDAKWSLALGLPLPLGEHAGRIYLCDIGIPQQVFQEVGINYHSPFGCKFVIPLHSA

Variants of: B1
Conditions: with mtus2_human MTUS2, Q5JR59

effect of a mutation on the interaction	Variant
with no effect	E483D

Variants of: B2
Conditions: with CEP170P1, Q96L14

effect of a mutation on the interaction	Variant
with no effect	R346W

Variants of: B3
Conditions: with FAM161A

effect of a mutation on the interaction	Variant
with no effect	P389L

Variants of: B3
Conditions: with FAM161A
Remark: another data set of the same source

effect of a mutation on the interaction	Variant
disrupting interaction strength	L330F

Variants of: B4
Conditions: with dab1_human DAB1, O75553

effect of a mutation on the interaction	Variant
with no effect	I163V

Variants of: B5
Conditions: with ddx6_human DDX6, P26196
Chain of ddx6_human DDX6, P26196 (P26196 whole entry): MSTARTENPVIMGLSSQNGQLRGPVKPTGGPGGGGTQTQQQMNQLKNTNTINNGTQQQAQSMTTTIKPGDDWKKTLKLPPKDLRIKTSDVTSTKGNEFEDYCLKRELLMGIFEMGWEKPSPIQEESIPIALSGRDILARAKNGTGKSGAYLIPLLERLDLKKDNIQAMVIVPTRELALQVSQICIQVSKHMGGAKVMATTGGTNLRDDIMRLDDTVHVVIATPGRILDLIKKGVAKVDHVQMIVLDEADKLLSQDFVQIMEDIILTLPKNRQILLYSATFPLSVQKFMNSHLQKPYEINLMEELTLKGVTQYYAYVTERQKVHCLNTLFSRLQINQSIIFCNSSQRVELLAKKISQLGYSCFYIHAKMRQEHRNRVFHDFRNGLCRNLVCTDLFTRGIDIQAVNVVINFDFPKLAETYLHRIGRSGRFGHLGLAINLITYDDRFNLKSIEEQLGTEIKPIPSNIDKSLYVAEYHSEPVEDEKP

effect of a mutation on the interaction	Variant
disrupting interaction strength	F213L
